This data set concerns the molecule itself. Description: negative stain EM; TEV-cleaved purified MTHFRFL, 50 nM in 20 mM HEPES pH 7.5, 200 mM NaCl with 5 mM SAM or 2.6 mM SAH; 2D classes.

B1: full-length human 5,10-methylenetetrahydrofolate reductase (MTHFRFL aa 1-656) (enzyme)
chain: not shown
modifications: multiply phosphorylated during its recombinant expression (N-terminal Ser/Thr-rich region; sites not given)
notes: human 5,10-methylenetetrahydrofolate reductase (MTHFR), full-length, aa 1-656, wild type; Homodimer; also called MTHFRFL^SAM; MTHFRFL^(SAH (symm)); source: baculovirus/insect cell system, SF9 cells, purified (Ni-NTA, Superdex 200 size exclusion); flag/His10 tag removed with TEV protease; not shown: FLAG, C-terminal, cleaved; His10, C-terminal, cleaved
With B1, the binding result is given as “binds”.

The values above are taken from PMC11018872, “Dynamic inter-domain transformations mediate the allosteric regulation of human 5, 10-methylenetetrahydrofolate reductase” (Nature Communications, 2024).
